Reference: patent US20070178098A1 (Merck KGaA, published 2007)
Positions count from the first letter of the chain named. One block for each binder: values may come before it.

Columns and labels:
Fc-IL6Ralpha-IL6 [1] = target: T1, Fc-IL6Ralpha-IL6 (human IL-6Ralpha and IL-6; mouse Fc); test: plate binding assay read as OD450, antibody titrated on Fc-IL6Ralpha-IL6
T1 construct: Fusion of a mouse IgG gamma2a Fc, the extracellular domains of human IL-6Ralpha and human IL-6; also called Fc-IL6Ralpha-IL6 fusion protein; muFc-IL6Ralpha-IL6

human IL-6 [2] = target: T2, human IL-6 (human, UniProt P05231 30-212); test: plate binding assay read as OD450, antibody titrated on IL6 (form of the coated IL-6 not given for this figure)
T2 construct: The Biacore text says only 'IL-6 protein'; also called interleukin-6; IL-6 protein

human IL-6 [3] = target: T2, human IL-6; test: Biacore, antibody immobilized on chip, IL-6 passed over
Experimental: The antibodies were immobilized on a chip; IL-6 protein was passed over the chip, and on-rates and off-rates were measured.

Fc-IL6Ralpha-IL6 [4] = target: T1, Fc-IL6Ralpha-IL6; test: competition assay: antibody titrated, inhibition of the binding of Fc-IL6Ralpha-IL6 to gp130-Fc; half of the antibody's own maximal inhibition
Experimental: To further characterize the antibodies that recognize IL-6, the following competition tests were performed. First, the ability of the monoclonal antibodies to inhibit the interaction between Fc-IL6Ralpha-IL6 and gp130-Fc was tested. The inhibition assays were performed based on the methods described by Scheller et al. J. Immuno. Methods, 291:93-100 (2004), the teachings of which are hereby incorporated by reference. […] Second, inhibition of the interaction between Fc-IL6 and Fc-IL6Ralpha by the antibodies was tested.

Fc-IL6 = target: T3, Fc-IL6 (human IL-6; mouse Fc); test: binding to immobilized Fc-IL6 (screen of paragraph 73)
T3 construct: also called Mature Fc-IL6
T3 chain: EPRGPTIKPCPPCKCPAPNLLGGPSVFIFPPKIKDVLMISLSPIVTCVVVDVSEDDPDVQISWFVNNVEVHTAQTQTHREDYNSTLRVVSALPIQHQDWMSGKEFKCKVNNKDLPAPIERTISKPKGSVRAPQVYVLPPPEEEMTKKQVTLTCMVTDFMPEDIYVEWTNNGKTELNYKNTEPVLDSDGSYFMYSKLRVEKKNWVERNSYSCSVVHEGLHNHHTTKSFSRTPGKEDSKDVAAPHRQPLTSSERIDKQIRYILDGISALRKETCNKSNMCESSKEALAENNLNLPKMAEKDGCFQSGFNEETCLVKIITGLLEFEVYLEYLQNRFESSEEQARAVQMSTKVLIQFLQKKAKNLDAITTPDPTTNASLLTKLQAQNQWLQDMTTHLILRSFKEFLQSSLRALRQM

human IL-6Ralpha = target: T4, human IL-6Ralpha (human, UniProt P08887 20-358, limits assumed); test: plate binding assay read as OD450, antibody titrated on IL6Ralpha alone
T4 construct: also called IL-6Ralpha alone
T4 sequence (looked up): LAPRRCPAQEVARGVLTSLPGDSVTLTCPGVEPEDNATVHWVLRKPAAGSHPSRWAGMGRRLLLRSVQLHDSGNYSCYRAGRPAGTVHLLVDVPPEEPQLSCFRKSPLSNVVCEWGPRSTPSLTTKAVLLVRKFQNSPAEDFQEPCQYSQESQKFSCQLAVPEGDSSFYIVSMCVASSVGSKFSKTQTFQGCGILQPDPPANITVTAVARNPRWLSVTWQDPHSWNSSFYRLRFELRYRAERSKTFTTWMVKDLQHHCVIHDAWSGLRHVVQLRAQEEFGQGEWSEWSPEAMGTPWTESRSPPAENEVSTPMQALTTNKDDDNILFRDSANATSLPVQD

Fc-IL6Ralpha-IL6 [5] = target: T1, Fc-IL6Ralpha-IL6; test: cell-based or functional assay

- EC50 (read off the curve) (Fc-IL6Ralpha-IL6 [1]): ~6 ng/mL
- EC50 (read off the curve) (human IL-6 [2]): ~5 ng/mL
- Kd (human IL-6 [3]): 0.047 to 0.106 nM
- koff (human IL-6 [3]): 0.00012 to 0.00026 s⁻¹
- kon (human IL-6 [3]): 2.5e+06 to 2.6e+06 M⁻¹ s⁻¹
- IC50 (read off the curve) (Fc-IL6Ralpha-IL6 [4]): ~200 ng/mL
- binding result (Fc-IL6): binds
- binding result (human IL-6Ralpha): no binding (tested: 1 ug/ml)
B1: Mab#476 (antibody, V domains shown)
VH: EVKLEESGGGLVQPGGSMKLSCAASGFTFSDAWMDWVRQSPEKGLEWVAEIRSKANNHATYYAESVKGRFTISRDDSKSSVYLQMNSLRAEDTGIYYCTTPTLYGAMDYWGQGTSVTVSA
VL: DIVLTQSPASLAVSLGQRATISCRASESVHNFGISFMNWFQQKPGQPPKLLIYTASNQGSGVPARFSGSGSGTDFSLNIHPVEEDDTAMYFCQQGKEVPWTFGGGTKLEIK
notes: Mouse IgG monoclonal from a hybridoma; V regions were amplified with primers specific for mouse IgG gamma1 VH and Vk; also called antibody 476

- EC50 (read off the curve) (Fc-IL6Ralpha-IL6 [1]): ~4 ng/mL
- EC50 (read off the curve) (human IL-6 [2]): ~4 ng/mL
- Kd (human IL-6 [3]): 2 nM
- koff (human IL-6 [3]): 0.0048 s⁻¹
- kon (human IL-6 [3]): 2.4e+06 M⁻¹ s⁻¹
- IC50 (read off the curve) (Fc-IL6Ralpha-IL6 [4]): ~100 ng/mL
- binding result (Fc-IL6): binds
- binding result (human IL-6Ralpha): no binding (tested: 1 ug/ml)
B2: Mab#195 (antibody, V domains shown)
VH: EVKLEESGGGLVQPGGSMKLSCVASGFTFSNYWMNWVRQSPEKGLEWVAEIRLKSNNYATHYAESVKGRFTISRDDSKSSVYLQMNNLRAEDTGIYYCTREDYYGYPDYWGQGTTLTVSS
VL: not shown
notes: Mouse IgG monoclonal from a hybridoma; V regions were amplified with primers specific for mouse IgG gamma1 VH and Vk; also called antibody 195

- EC50 (read off the curve) (Fc-IL6Ralpha-IL6 [1]): ~3 ng/mL
- EC50 (read off the curve) (human IL-6 [2]): ~3 ng/mL
- Kd (human IL-6 [3]): 0.135 nM
- koff (human IL-6 [3]): 0.00011 s⁻¹
- kon (human IL-6 [3]): 800000 M⁻¹ s⁻¹
- IC50 (read off the curve) (Fc-IL6Ralpha-IL6 [4]): ~200 ng/mL
- binding result (Fc-IL6): binds
- binding result (human IL-6Ralpha): no binding (tested: 1 ug/ml)
B3: Mab#309 (antibody, V domains shown)
VH: EVKLEESGGGLVQPGGSMKLSCVASGFTFSNYWMNWVRQSPEKGLEWVAEIRLKSNKGATHYAESVKGRFTISRDDSKSSVYLQMNNLRAEDTGIYYCASLLYDGYLHWGQGTLVTVSA
VL: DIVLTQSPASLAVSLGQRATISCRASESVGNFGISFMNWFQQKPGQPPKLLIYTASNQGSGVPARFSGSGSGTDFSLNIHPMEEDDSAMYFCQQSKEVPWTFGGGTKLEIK
notes: Mouse IgG monoclonal from a hybridoma; V regions were amplified with primers specific for mouse IgG gamma1 VH and Vk; also called antibody 309

- EC50 (read off the curve) (Fc-IL6Ralpha-IL6 [1]): ~3 ng/mL
- EC50 (read off the curve) (human IL-6 [2]): ~5 ng/mL
- Kd (human IL-6 [3]): 0.0075 nM
- koff (human IL-6 [3]): 1.4e-05 s⁻¹
- kon (human IL-6 [3]): 1.8e+06 M⁻¹ s⁻¹
- IC50 (read off the curve) (Fc-IL6Ralpha-IL6 [4]): ~200 ng/mL
- binding result (Fc-IL6): binds
- binding result (human IL-6Ralpha): no binding (tested: 1 ug/ml)
- haptoglobin level in mice given muFc-IL6Ralpha-IL6, relative to the positive control group at 24 hours (Fc-IL6Ralpha-IL6 [5]): ~30%
B4: Mab#471 (antibody, V domains shown)
VH: B3 VH with L4F, T28S, K54T, G58Q, T60I, H61Y, L102F
VL: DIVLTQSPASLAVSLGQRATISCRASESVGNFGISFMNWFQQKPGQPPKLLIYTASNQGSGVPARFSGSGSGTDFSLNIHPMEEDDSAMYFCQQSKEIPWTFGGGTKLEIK
notes: Mouse IgG monoclonal from a hybridoma; V regions were amplified with primers specific for mouse IgG gamma1 VH and Vk
